From patent publication US20170240645A1 (Genentech, published 2017)
Residue numbers refer to the chain shown, from its start.

Key:
[1] = target: T1, endothelin B receptor (ETBR) (UniProt P24530 27-442, limits assumed); experiment: cell-based or functional assay
T1 sequence (looked up): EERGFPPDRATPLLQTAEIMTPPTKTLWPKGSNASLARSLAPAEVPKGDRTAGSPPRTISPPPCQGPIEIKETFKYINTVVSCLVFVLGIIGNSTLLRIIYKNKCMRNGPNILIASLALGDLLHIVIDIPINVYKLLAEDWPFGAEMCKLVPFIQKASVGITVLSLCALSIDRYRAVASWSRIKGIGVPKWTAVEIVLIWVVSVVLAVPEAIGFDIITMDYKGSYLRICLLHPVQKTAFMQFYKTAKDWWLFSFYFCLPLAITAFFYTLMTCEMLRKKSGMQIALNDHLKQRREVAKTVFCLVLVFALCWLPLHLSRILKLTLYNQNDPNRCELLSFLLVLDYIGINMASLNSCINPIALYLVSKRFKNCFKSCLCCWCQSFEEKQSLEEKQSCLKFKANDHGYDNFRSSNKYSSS

human PMEL17 [2] = target: T2, human PMEL17 (human, UniProt P40967 25-661); experiment: flow cytometry on parental and in vivo-derived resistant UACC-257X2.2 melanoma cells, detected with anti-human Alexa 488 conjugate; control peak is secondary antibody only
T2 construct: Untagged PMEL17 as it occurs on melanoma cell lines, normal human melanocytes, PC3 cells stably expressing PMEL17 cDNA, and in human tissue sections; also called Melanocyte protein PMEL17
T2 sequence: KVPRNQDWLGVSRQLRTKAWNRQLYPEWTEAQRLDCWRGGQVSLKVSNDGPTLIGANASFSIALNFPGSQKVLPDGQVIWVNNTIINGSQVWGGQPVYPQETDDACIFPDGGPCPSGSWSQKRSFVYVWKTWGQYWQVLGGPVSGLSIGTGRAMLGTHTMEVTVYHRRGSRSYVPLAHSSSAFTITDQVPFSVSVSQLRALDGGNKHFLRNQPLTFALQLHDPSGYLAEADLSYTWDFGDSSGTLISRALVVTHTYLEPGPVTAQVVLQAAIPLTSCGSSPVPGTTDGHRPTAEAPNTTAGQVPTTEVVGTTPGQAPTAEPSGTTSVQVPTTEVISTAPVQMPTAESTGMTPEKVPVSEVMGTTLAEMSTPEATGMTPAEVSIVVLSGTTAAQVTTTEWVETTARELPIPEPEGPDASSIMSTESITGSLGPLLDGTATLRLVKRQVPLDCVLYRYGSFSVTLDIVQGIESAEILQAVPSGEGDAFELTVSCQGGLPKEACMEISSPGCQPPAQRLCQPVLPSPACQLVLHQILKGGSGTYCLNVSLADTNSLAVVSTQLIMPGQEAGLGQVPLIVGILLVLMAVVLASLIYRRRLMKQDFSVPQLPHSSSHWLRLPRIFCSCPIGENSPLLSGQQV
Protocol: Expression of ETBR and PMEL17 on the surface of the in vivo- and in vitro-derived resistant UACC-257X2.2 cells and the parental UACC-257X2.2 cells was then determined by FACS. Cells were stained with anti-ETBR antibody (hu5E9.v1 or ch5E9) or with anti-PMEL17 antibody (ch17A9), followed by an anti-human Alexa 488 antibody conjugate. […] Surface expression of PMEL17 was unchanged in the resistant cells as compared to the parental cells.

human PMEL17 [3] = target: T2, human PMEL17; experiment: FACS screen of hybridoma clones

B1: anti-ETBR-PNU (ch5E9 conjugated to MC-PNU-159682 through a non-cleavable linker) (antibody, human IgG1, kappa, V domains shown)
VH: QVQLLQSGAELARPGASVKLSCKASGYTFTSYWMQWVKQRPGQGLEWIGTIYPGDGDTSYAQKFKGKATLTTDKYSSTAYMQLSSLASEDSAVYYCARWGYAYDIDNWGQGTLVTVSS
VL: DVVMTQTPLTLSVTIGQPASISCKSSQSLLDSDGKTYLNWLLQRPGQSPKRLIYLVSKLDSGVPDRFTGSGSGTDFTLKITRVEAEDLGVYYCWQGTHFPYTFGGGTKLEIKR
modifications: MC-PNU-159682 on reduced cysteine residues of the antibody
What does the source list for B1?
EC50 of cell survival (CellTiter-Glo), in vitro derived resistant UACC-257X2.2 cells [1]: 0.0146 µg/mL; EC50 of cell survival (CellTiter-Glo), in vivo derived resistant UACC-257X2.2 cells [1]: 0.0143 µg/mL; EC50 of cell survival (CellTiter-Glo), parental UACC-257X2.2 cells [1]: 0.0042 µg/mL

B2: ch17A9 (antibody, human IgG1, kappa, V domains shown)
VH: EVQLQQSGPELVKPGASMKISCKSSGYSFTRYTMNWVKQSHGKNLEWIGVINPYNGGTVYNQKFKGKATLTVDKSSSTAYMELLSLTSEDSAVYYCARTDYDGYAMDYWGQGTSVTVSS
VL: DVQITQSPSYLAASPGETITINCRATKSISKYLAWYQEQPGKTNNLLIYSGSTLQSGIPSRFSGSGSGTDFTLTISSLEPEDFAMYYCQQHNEYPYTFGSGTKLEIKR
notes: also called chimeric 17A9
Does B2 bind (human PMEL17 [2])?
Result: binds

B3: 8G3 (antibody, V domains shown)
VH: B2 VH with K19R, S24A, R31G, I51Y, A79T, Y101S, D102G, Y108C
VL: DVQITQSPSYLDASPGETITINCRASKTISKYLAWYQEKPGKTNKLLIYSGSTLQSGIPSRFSGSGSGTDFTLTISSLEPEDFAMYYCQQHNEYPYTFGSGTKLEIK
notes: Mouse monoclonal antibody from a hybridoma
Does B3 bind (human PMEL17 [3])?
Result: binds

B4: 15F2 (antibody, V domains shown)
VH: QVQLKESGPGLVAPSQSLSITCTVSGFSLTKYGVHWVRQPPGKGLEWLGVIWAGGNTNYNSALMSRLSINKDNSKSQVFLKMNSLQTDDTAMYYCATFDVWGAGTTVTVSS
VL: DIVMTQAAPSVPVTPGESVSISCRSSKSLLHSNGNTFLYWFLQRPGQSPQLLIYRMSNLVSGVPDRFSGSGSGTAFTLRISRVEAEDVGFYYCMQHLEYPYTFGGGTKLELK
notes: as for B3
Does B4 bind (human PMEL17 [3])?
Result: binds
